Assay [1] has as its target T1, synthetic biotinylated bovine SR-AI (truncated, comprising the ligand binding pocket) (Bos taurus, UniProt P21758).
T1 sequence (P21758 272-343): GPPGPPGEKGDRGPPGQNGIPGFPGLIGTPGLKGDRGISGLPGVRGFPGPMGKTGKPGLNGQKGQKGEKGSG
Kind of assay: Competition of enriched phage pool binding to immobilized biotinylated synthetic SR-AI. Conditions: displacement of enriched phage pool (round 7, 10^8 cfu) from streptavidin-immobilized biotinylated SR-AI peptide; 0-300 µm peptide; 2h at RT; calculated from displacement curves. An excerpt: (§1) All peptides were synthesized on an automated peptide synthesizer (9050 Millipore, MA) using standard Fmoc solid-phase peptide synthesis. Crude peptides were purified on a preparative C8 RP-HPLC column (Altech, Deerfield, IL) using a JASCO PU-980 (Tokyo, Japan). Purified peptides were further characterized by LC-MS in Division of Analytical Biosciences, Leiden University. The purity of the peptide, as checked by MALDI-TOF mass spectrometry and RP-HPLC, was at least 70%. Lyophilized peptides were stored at -20°C under nitrogen until further use. Synthetic biotinylated bovine SR-AI was synthesized, purified and characterised as described by Suzuki et al. (Suzuki et al., 1999).
10 µg/ml of streptavidin in coating buffer (50 mM NaHC03, pH 9.6) was incubated overnight at 4°C in a high binding 96 well plate (Costar, Coming, UK) at 100 µl/well. Subsequently, wells were washed with assay buffer (20 mM HEPES, 150 mM NaCl, 1mM CaCl2, pH 7.4) and incubated for 1 hour at 37°C with blocking buffer (3% BSA in assay buffer). […]
In analogy to the phage selection procedure, 10 µg/ml of streptavidin in coating buffer was incubated overnight at 4°C in a high-binding 96-well plate at 100 µl/well. […] Residual phage binding was calculated from the output ratio.

Assay [2] has as its target Synthetic biotinylated bovine SR-AI (synthetic, truncated SR-AI comprising the ligand binding pocket) (bovine) (UniProt P21758). Kind of assay: competition of selective phage pool binding to immobilized biotinylated SR-AI by suc-HSA.
The target in assay [3] is T2, immobilized, biotinylated, synthetic, truncated SR-AI (Bos taurus, UniProt P21758).
T2 sequence (P21758 1-453): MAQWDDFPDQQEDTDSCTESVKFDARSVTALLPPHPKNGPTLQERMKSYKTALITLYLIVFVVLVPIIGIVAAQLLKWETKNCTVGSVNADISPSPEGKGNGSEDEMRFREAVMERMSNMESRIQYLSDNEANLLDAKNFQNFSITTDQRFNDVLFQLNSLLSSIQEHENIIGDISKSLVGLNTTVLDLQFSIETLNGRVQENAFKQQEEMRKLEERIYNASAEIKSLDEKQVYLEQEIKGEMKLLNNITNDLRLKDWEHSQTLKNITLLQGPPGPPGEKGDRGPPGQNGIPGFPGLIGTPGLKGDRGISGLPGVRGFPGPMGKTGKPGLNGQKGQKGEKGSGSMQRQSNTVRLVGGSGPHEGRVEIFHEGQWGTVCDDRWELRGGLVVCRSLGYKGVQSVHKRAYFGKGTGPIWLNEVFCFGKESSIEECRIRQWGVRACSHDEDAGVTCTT
Kind of assay: Competition of selected phage pool binding to immobilized synthetic SR-AI. Also noted: species or system bovine.
Text: as §1
In analogy to the phage selection procedure, 10 µg/ml of streptavidin in coating buffer was incubated overnight at 4°C in a high-binding 96-well plate at 100 µl/well. Wells were washed 3x with assay buffer and incubated for 1 h at 37°C with blocking buffer. Next, wells were incubated for 2h at 37°C with 125 nM biotininylated SR-AI binding peptide (100 µl/well), washed 3x with binding buffer, after which the SR-AI ligands or synthetic SR-AI binding peptides (7, 9, 11, 13, 15 a. a.) were added and the solution (100 µl) was left to incubate for 2h at RT with the enriched phage pool (round 7) at 10^8 cfu. Wells were washed 10x with binding buffer, binding phage were eluted by incubation for 5 min at RT with 100 µl elution buffer, and neutralized with 50 µl neutralization buffer (1M Tris-HCI, pH 8.5). Residual phage binding was calculated from the output ratio.

For assay [4], the target named is Synthetic biotinylated bovine SR-AI (synthetic, truncated SR-AI comprising the ligand binding pocket) (bovine) (UniProt P21758). Description: competition of enriched phage pool binding to immobilized biotinylated SR-AI peptide by synthetic peptide.
The target is the same in assay [5]. The assay is described as above. This is another data set of the same source.
Assay [6] shares this target. Kind of assay: competition of enriched phage pool binding to immobilized biotinylated SR-AI; IC50 against that of poly I.
Where [7] appears, read: synthetic peptides (0-300 µM) competing with binding of enriched phage pool (round 7) to biotinylated SR-AI peptide, calculated from displacement curves, three independent experiments.

Like-named read-outs stand apart in the source and are kept apart here. No end group written: not given here.

Usually IC50 stands for the concentration needed to halve the response being measured. Take LSLERFLRCWSDAPA [PP1]: the IC50 in assay [1] was 29 µM.

Take “Succinylated human serum albumin (from UniProt P02768 25-609) (ligand)”: the IC50 in assay [2] turned out to be 66 µg/mL.

Take LERFLRCWSDAPA [LERFLRCWSDAPA]: the IC50 in assay [3] (setting [7]) was 72.3 µM.

Take LSLERFLRCWSDAPA [PP1, LSLERFLRCWSDAPA]: the figures for the IC50 in assay [3] and in assay [3] (setting [7]) were 28.3 µM and 29.1 µM, respectively.

On to RFLRCWSDAPA [RFLRCWSDAPA], for which, in assay [3] (setting [7]), the IC50 is 80.9 µM.

In assay [4], LERFLRCWSDAPA [PP1-13 (…)] returned an IC50 of 72.3 µM.

Molecule RFLRCWSDAPA [PP1-11 (…)] registered an IC50 in assay [4] of 80.9 µM.

For LSLERFLRCWSDAPA [PP1 (…), synthetic full-length peptide], in assay [5], the IC50 was 50 µg/mL. In assay [6], this molecule yielded a fold less potent than poly I of 5 fold.

Consider CWSDAPA [PP1-7 (CWSDAPA)], for which the IC50 in assay [4] stood at 217 µM.

The values are drawn from patent EP1602931A1, “SR-A antagonists” (Universiteit Leiden, priority 2004, dated 2005).
